± gives the uncertainty stated by the source.

To fix the notation:
B1: Transcriptional regulator ERG, residues 117 to 197; numbered along this chain, P11308 (parent)
chain: NMTTNERRVIVPADPTLWSTDHVRQWLEWAVKEYGLPDVNILLFQNIDGKELCKMTKDDFQRLTPSYNADILLSHLHYLRE

This data set covers variants of B1. Nature of the data set: abundance fitness (aPCA) (normalised: wild type 0, dead -1); higher = more abundant; growth selection in yeast, the domain comes from the species named. The settings on record: Homo sapiens.
Regarding NMTTNERRVIVPADPTLWSTDHVRQWLEWAVKEYGLPDVNIFLFQNIDGKELCKMTKDDFQRLTPSYNADILLSHLHYLRE, the abundance fitness was -0.154 ± 0.082.

For NMTTNERRVIVPADPTLWSTDHVRQWLEWAVKEYGLPDVNIDLFQNIDGKELCKMTKDDFQRLTPSYNADILLSHLHYLRE, the abundance fitness was -0.068 ± 0.063. The figure for NMTTNERRVIVPADPTLWSTDHVRQWLEWAVKEYGLPDVNIELFQNIDGKELCKMTKDDFQRLTPSYNADILLSHLHYLRE is -0.001 ± 0.043. The value for NMTTNERRVIVPADPTLWSTDHVRQWLEWAVKEYGLPDVNIALFQNIDGKELCKMTKDDFQRLTPSYNADILLSHLHYLRE was 0.014 ± 0.038. The value for NMTTNERRVIVPADPTLWSTDHVRQWLEWAVKEYGLPDVNIKLFQNIDGKELCKMTKDDFQRLTPSYNADILLSHLHYLRE was -0.008 ± 0.054. Regarding NMTTNERRVIVPADPTLWSTDHVRQWLEWAVKEYGLPDVNIYLFQNIDGKELCKMTKDDFQRLTPSYNADILLSHLHYLRE, the abundance fitness is -0.018 ± 0.072. The value for NMTTNERRVIVPADPTLWSTDHVRQWLEWAVKEYGLPDVNIVLFQNIDGKELCKMTKDDFQRLTPSYNADILLSHLHYLRE was -0.027 ± 0.035; that for NMTTNERRVIVPADPTLWSTDHVRQWLEWAVKEYGLPDVNIILFQNIDGKELCKMTKDDFQRLTPSYNADILLSHLHYLRE was -0.112 ± 0.087. The value for NMTTNERRVIVPADPTLWSTDHVRQWLEWAVKEYGLPDVNIRLFQNIDGKELCKMTKDDFQRLTPSYNADILLSHLHYLRE was 0.056 ± 0.031. The value for NMTTNERRVIVPADPTLWSTDHVRQWLEWAVKEYGLPDVNINLFQNIDGKELCKMTKDDFQRLTPSYNADILLSHLHYLRE was 0.078 ± 0.067; that for NMTTNERRVIVPADPTLWSTDHVRQWLEWAVKEYGLPDVNIGLFQNIDGKELCKMTKDDFQRLTPSYNADILLSHLHYLRE was 0.033 ± 0.029; that for NMTTNERRVIVPADPTLWSTDHVRQWLEWAVKEYGLPDVNITLFQNIDGKELCKMTKDDFQRLTPSYNADILLSHLHYLRE was -0.042 ± 0.053. Turning to NMTTNERRVIVPADPTLWSTDHVRQWLEWAVKEYGLPDVNICLFQNIDGKELCKMTKDDFQRLTPSYNADILLSHLHYLRE, the abundance fitness was -0.051 ± 0.052.

As for NMTTNERRVIVPADPTLWSTDHVRQWLEWAVKEYGLPDVNISLFQNIDGKELCKMTKDDFQRLTPSYNADILLSHLHYLRE, the abundance fitness turned out to be 0.012 ± 0.041. The value for NMTTNERRVIVPADPTLWSTDHVRQWLEWAVKEYGLPDVNIWLFQNIDGKELCKMTKDDFQRLTPSYNADILLSHLHYLRE was -0.024 ± 0.038. Turning to NMTTNERRVIVPADPTLWSTDHVRQWLEWAVKEYGLPDVNILFFQNIDGKELCKMTKDDFQRLTPSYNADILLSHLHYLRE, the abundance fitness was -0.105 ± 0.064.

Regarding NMTTNERRVIVPADPTLWSTDHVRQWLEWAVKEYGLPDVNILGFQNIDGKELCKMTKDDFQRLTPSYNADILLSHLHYLRE, the abundance fitness was -0.019 ± 0.03.

On to NMTTNERRVIVPADPTLWSTDHVRQWLEWAVKEYGLPDVNILTFQNIDGKELCKMTKDDFQRLTPSYNADILLSHLHYLRE, for which the abundance fitness was 0.07 ± 0.058. The value for NMTTNERRVIVPADPTLWSTDHVRQWLEWAVKEYGLPDVNILYFQNIDGKELCKMTKDDFQRLTPSYNADILLSHLHYLRE was -0.082 ± 0.072. Take NMTTNERRVIVPADPTLWSTDHVRQWLEWAVKEYGLPDVNILMFQNIDGKELCKMTKDDFQRLTPSYNADILLSHLHYLRE: the abundance fitness was -0.063 ± 0.054. The figure for NMTTNERRVIVPADPTLWSTDHVRQWLEWAVKEYGLPDVNILVFQNIDGKELCKMTKDDFQRLTPSYNADILLSHLHYLRE is -0.083 ± 0.035. The figure for NMTTNERRVIVPADPTLWSTDHVRQWLEWAVKEYGLPDVNILKFQNIDGKELCKMTKDDFQRLTPSYNADILLSHLHYLRE is 0.071 ± 0.05; for NMTTNERRVIVPADPTLWSTDHVRQWLEWAVKEYGLPDVNILHFQNIDGKELCKMTKDDFQRLTPSYNADILLSHLHYLRE it is 0.027 ± 0.079. The value for NMTTNERRVIVPADPTLWSTDHVRQWLEWAVKEYGLPDVNILRFQNIDGKELCKMTKDDFQRLTPSYNADILLSHLHYLRE was -0.029 ± 0.032. Regarding NMTTNERRVIVPADPTLWSTDHVRQWLEWAVKEYGLPDVNILNFQNIDGKELCKMTKDDFQRLTPSYNADILLSHLHYLRE, the abundance fitness was -0.033 ± 0.096. As to NMTTNERRVIVPADPTLWSTDHVRQWLEWAVKEYGLPDVNILCFQNIDGKELCKMTKDDFQRLTPSYNADILLSHLHYLRE, the abundance fitness is 0.08 ± 0.056. Regarding NMTTNERRVIVPADPTLWSTDHVRQWLEWAVKEYGLPDVNILQFQNIDGKELCKMTKDDFQRLTPSYNADILLSHLHYLRE, the abundance fitness is 0.047 ± 0.052. The figure for NMTTNERRVIVPADPTLWSTDHVRQWLEWAVKEYGLPDVNILDFQNIDGKELCKMTKDDFQRLTPSYNADILLSHLHYLRE is -0.006 ± 0.059; for NMTTNERRVIVPADPTLWSTDHVRQWLEWAVKEYGLPDVNILSFQNIDGKELCKMTKDDFQRLTPSYNADILLSHLHYLRE it is 0.041 ± 0.044; for NMTTNERRVIVPADPTLWSTDHVRQWLEWAVKEYGLPDVNILPFQNIDGKELCKMTKDDFQRLTPSYNADILLSHLHYLRE it is -0.128 ± 0.064. The value for NMTTNERRVIVPADPTLWSTDHVRQWLEWAVKEYGLPDVNILIFQNIDGKELCKMTKDDFQRLTPSYNADILLSHLHYLRE was -0.217 ± 0.15; that for NMTTNERRVIVPADPTLWSTDHVRQWLEWAVKEYGLPDVNILWFQNIDGKELCKMTKDDFQRLTPSYNADILLSHLHYLRE was -0.079 ± 0.04; that for NMTTNERRVIVPADPTLWSTDHVRQWLEWAVKEYGLPDVNILLDQNIDGKELCKMTKDDFQRLTPSYNADILLSHLHYLRE was -0.067 ± 0.073.

In the case of NMTTNERRVIVPADPTLWSTDHVRQWLEWAVKEYGLPDVNILLCQNIDGKELCKMTKDDFQRLTPSYNADILLSHLHYLRE, the abundance fitness was -0.215 ± 0.068.

These data come from the Human Domainome abundance scans (Beltran et al. 2025).
